From patent US20040014670A1 (AJINOMOTO, published 2004)

How the values were obtained:
[1] = molecular target: rabbit pulmonal angiotensin converting enzyme (Sigma) (rabbit) (UniProt P12822); test: cell-based or functional assay
[2] = molecular target: T1, rabbit pulmonal angiotensin converting enzyme (Sigma) (rabbit, UniProt P12822 34-1310, limits assumed); test: cell-based or functional assay
T1 sequence (looked up): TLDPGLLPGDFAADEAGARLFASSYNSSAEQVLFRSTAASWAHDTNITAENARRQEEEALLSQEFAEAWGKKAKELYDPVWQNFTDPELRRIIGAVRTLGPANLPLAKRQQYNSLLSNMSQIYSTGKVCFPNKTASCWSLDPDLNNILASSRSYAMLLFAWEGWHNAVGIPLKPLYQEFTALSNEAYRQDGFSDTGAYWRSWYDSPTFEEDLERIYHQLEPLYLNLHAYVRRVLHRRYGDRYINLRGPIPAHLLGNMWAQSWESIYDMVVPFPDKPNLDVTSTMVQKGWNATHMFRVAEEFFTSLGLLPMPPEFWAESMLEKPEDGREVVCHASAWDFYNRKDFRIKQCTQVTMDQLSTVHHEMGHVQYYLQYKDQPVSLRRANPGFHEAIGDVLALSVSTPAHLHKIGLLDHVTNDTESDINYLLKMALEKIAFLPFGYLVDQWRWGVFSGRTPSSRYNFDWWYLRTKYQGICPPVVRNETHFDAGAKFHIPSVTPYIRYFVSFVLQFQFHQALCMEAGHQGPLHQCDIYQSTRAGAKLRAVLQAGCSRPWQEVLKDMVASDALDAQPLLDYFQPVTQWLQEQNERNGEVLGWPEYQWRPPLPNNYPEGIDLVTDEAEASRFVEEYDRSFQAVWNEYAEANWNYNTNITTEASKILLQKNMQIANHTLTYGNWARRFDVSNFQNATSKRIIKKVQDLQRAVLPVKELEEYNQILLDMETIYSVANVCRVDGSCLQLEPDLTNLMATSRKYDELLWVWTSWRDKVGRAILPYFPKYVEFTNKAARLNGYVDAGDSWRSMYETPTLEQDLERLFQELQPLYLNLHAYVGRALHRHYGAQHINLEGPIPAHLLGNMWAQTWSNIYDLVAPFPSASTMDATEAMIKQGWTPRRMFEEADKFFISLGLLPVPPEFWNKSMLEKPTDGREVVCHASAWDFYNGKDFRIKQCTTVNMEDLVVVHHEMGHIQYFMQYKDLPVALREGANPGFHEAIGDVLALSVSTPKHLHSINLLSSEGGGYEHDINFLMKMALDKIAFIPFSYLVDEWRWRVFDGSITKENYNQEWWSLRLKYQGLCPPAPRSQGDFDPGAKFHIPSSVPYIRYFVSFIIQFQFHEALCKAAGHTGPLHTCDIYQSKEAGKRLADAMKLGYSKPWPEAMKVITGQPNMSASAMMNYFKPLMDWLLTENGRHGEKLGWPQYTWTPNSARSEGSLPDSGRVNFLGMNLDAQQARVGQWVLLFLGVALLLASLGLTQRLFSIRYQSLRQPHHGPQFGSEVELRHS

## soybean protein hydrolysates prepared with protease D3
[1]
  IC50 value, the concentration for 50% inhibition against ACE: 180 µg/mL

## Bradykinin potentiator C (peptide)
[1]
  IC50 (µM), inhibition of angiotensin converting enzyme activity (colorimetry at 505 nm, substrate p-hydroxyl benzoyl glycyl-L-histidyl-L-leucine): 35 µM

## PNNKPFQ [Pro-Asn-Asn-Lys-Pro-Phe-Gln]
[2]
  IC50 (µM), inhibition of angiotensin converting enzyme activity (colorimetry at 505 nm, substrate p-hydroxyl benzoyl glycyl-L-histidyl-L-leucine): 33 µM

## NWGPLV [Asn-Trp-Gly-Pro-Leu-Val]
[2]
  IC50 (µM), inhibition of angiotensin converting enzyme activity (colorimetry at 505 nm, substrate p-hydroxyl benzoyl glycyl-L-histidyl-L-leucine): 21 µM

## IPPGVPYWT [Ile-Pro-Pro-Gly-Val-Pro-Tyr-Trp-Thr]
[2]
  IC50 (µM), inhibition of angiotensin converting enzyme activity (colorimetry at 505 nm, substrate p-hydroxyl benzoyl glycyl-L-histidyl-L-leucine): 64 µM
